Patent publication US20260092113A1 (Sanofi, published 2026)

Target: T1, human OX40 on the surface of target cells (HEK293 cells expressing human OX40, jurkat cells engineered to … (human, UniProt P43489 29-277))
T1 construct: whole, on cells; also called huOX40
T1 sequence (looked up): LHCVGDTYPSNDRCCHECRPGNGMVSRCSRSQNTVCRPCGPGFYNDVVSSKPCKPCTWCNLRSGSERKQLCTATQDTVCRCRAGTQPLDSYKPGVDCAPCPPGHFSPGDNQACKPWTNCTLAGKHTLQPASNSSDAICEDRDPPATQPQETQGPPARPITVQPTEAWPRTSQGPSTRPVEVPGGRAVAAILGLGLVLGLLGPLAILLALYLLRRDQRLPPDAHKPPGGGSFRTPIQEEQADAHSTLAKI
Assay: flow cytometry on HEK293 cells expressing human OX40, anti-human IgG Fc PE, MFI
Excerpt: The cell lines used were HEK293 cells expressing human OX40 or cyno OX40, jurkat cells, and jurkat cells engineered to express human OX40. […] Frozen target cells were thawed and seeded at 5×10⁴ cells per well.
For live dead cell discrimination cells were stained according to manufacturer's protocol using the LIVE/DEAD™ Fixable Yellow Dead Cell Stain Kit (Molecular Probes, L34959).

EC50 (read off the curve): ~0.8 nM
B1: bispecific antibody L1 (anti-CD28/anti-OX40) (bispecific antibody, human IgG1, kappa, L234A L235A)
light: not shown
heavy: not shown
chain: DVQLVESGGGVVQPGGSLRLSCAASGSFFSIDTMDWYRQAPGKQRELVTGVTSGGLTNYADSVKGRFTISIDNAKNTVYLQMNSLRPEDTALYYCSARIRTSGGGGWSTYWGQGTLVTVSSGGGGSDKTHTCPPCPAPEAAGGPSVFLFPPKPKDTLMISRTPEVTCVVVDVSHEDPEVKFNWYVDGVEVHNAKTKPREEQYNSTYRVVSVLTVLHQDWLNGKEYKCKVSNKALPAPIEKTISKAKGQPREPQVCTLPPSRDELTKNQVSLSCAVKGFYPSDIAVEWESNGQPENNYKTTPPVLDSDGSFFLVSKLTVDKSRWQQGNVFSCSVMHEALHNRFTQKSLSLSPG
notes: also called L1 & L4 OX40 arm x L1 & L3 & L2 CD28 arm
